The data set in a line: yeast display, Sf9 membrane polyspecificity reagent, FACS + sequencing; frameworks hold sequencing errors. In short, it runs like this: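 Synthetic nanobody libraries on Saccharomyces cerevisiae BJ5465 were galactose-induced for 36–48 hours, stained 1 hour at 4 °C with 10% biotinylated, detergent-solubilized Sf9 membrane reagent and enriched on streptavidin microbeads. FACS then separated cells into low and high (top ~1%) gates by anti-HA (expression) and streptavidin (reagent binding) fluorescence. Genes were colony-PCR amplified, MiSeq 2 × 250 sequenced and CDR-length filtered. A clone's polyreactivity label is that of its gate of origin.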
Regarding “QVQLVESGGGLVQAGGSLRLSCAASGFTFFVYAMGWYRKAPGKERELVATINWSGASTYYADSVKGRFTISRDNAKNTVYLQMNSLKPEDTAVYYCDKDGHYPLVYLAFDYWGQGTQVTVSS”, the “polyreactivity (PSR sort gate)” value is reported as “low polyreactivity”. Turning to “QVQLVESGGGLVQAGGSLRLSCAASGNTFDEYAMGWYRQAPGKEREFVAAIRNTYYADSVKGRFTISRDNAKNTVYLQMNSLKPEDTAVYYCAKPSQLHPYEYWGQGTQVTVSS”, the “polyreactivity (PSR sort gate)” value was “low polyreactivity”. As for “QVQLVESGGGLVQAGGSLRLSCAASGRIFLWYAMGWYRQAPGKERELVAAISRTGGSTYYADSVKGRFTISRDNAKNTVYLQMNSLKPEDTAVYFCAAYHSYKTSWPQSGYWGQGTQVTVSS”, the entry is “high polyreactivity”; as for “QVQLVESGGGLVQAGGSLRLSCAASGSTFGYYAMGWYRHAPGKERELVAAISWRGGSTYYADSVKGRYTISRDNAKNTVYLQMISLKPEDTAVYYCAAPVGNYGSFDYWGQGTQVTVSS”, “low polyreactivity”; as for “QVQLVESGGGLVQAGGSLRLSCAASGGIFNYYAMGWYRQAPGKDRELVAAISASGGSTYYADSVKGRFTISRDYAKNTVYLQMNSLKPEDTAVYYCASGLPYGYGYDYWGQGTQVTVSS”, “low polyreactivity”.

As to “QVQLVESGGGLVQAGGSLRLSCAASGSIFSTNAMGWYRQAPWKERELVAGISSDDSTYADSVKGRFTISRDNAKNTVNLQMNSLKPEDTAVYNCAAEDNWYNVGYYYRGQGTQVTVSS”, the “polyreactivity (PSR sort gate)” value is on record as “low polyreactivity”. As for “QVQLVESGGGLVQAGGSLRLSCAASGLTISTNAMGWYRQAPGKERELVAAISRAGSTYYADSVKGRFTISRDNAKNTVYLQMNSLKPEDTAVYYCAAKYRYSTYHRGSFNFWGQGTQVTVSS”, the entry is “high polyreactivity”; as for “QVQLVESGGGLVQAGGSLRLSCAASGSIFLQNAMGWYRQAPGKERELVAAITNGGSTNYADSVKGRFTISRDNAKHTVYLQLNSLKPEDTAVYYCAAYPLYTGSYDRGGYWGQGTQVTVSS”, “low polyreactivity”. As for “QVQLVESGGGLVQAGGSLRLSCAASGRIFAYYTMGWYRQAPGKERELVASITSGSSTNYADSVKGLFTISRDNAKNTVYLQMNSLKPEDTAVYYCAAPRGSYVRTRYRGYVVQSNYWGQGTQVTVSS”, the entry is “high polyreactivity”. The same measure for “QVNLVESGGGLVQAGGSLRLSCAASGRTFRFYVMGWYRQAPGKERELVAVIRYRGGSTYYADSVKGRFTISRDNAKNTVYLHMNSLKPEDTAVYYCNADFLLAGNEYDFWGQGTQVTVSS”: “high polyreactivity”; for “QVQLVESGGGLVQAGGSLRLSCAASGRIFTRYAMGWYRQAPWKERELVAVITRSGGSTYYADSVKGRFTISRDNAKNTVYFKMNSLIPEDTAVYYCAVRPYELHRLADQPGGDDYWGQGTQVTVSS”: “low polyreactivity”. Consider “QVQLVESGGGLVQAGGSLRLSCAASGITFVFYAMGWYRQAPGKARELVATISYRGTSTYYADSVKGRFTISRDNAKNTVYLQMNSLKPEDTAVSYCAGDTYIYYKTGYGYWGQGTQVTVSS”, for which the “polyreactivity (PSR sort gate)” value is “low polyreactivity”. As for “QVQLVESGGGLVLAGGRLRLSCAASGRTFFDYTMGWYSQAPGKEREFVARISSRTGRTYYADSVKGRFTISRDNEKNTDDLQMNSLKPDDTAVYYCNAVSQYSAFDYWGQGTQVTVSS”, the entry is “high polyreactivity”; as for “QVQRVESGGGLVQAGGSLRLSSAGSGSIFNIYTMGWYRQAPGKERELVAAISYGGGSTYADSVKGRLTISRDNAKNTVYLQMNSLKPEDTAVYYCNAKRTYHWRWYQYDYWGQGTQVTVSS”, “high polyreactivity”; as for “QVQLVESAGGLVQAGGSLRLSCAASGIIFTPNPMGWYRQAPGKEREFVAAINYGGDTTYYADSVKGRFTISRNNAKNTVYLQMNRLKPEDTAVYYCATDGTTPTPRDAFVRFDHWGQGTQVTVSS”, “low polyreactivity”. As for “QVQLVESAGGLVQAGGSLRLSCAASGSTFAFYAMGWYRQAPGKERELVAVISLRGSRTYYADSVKGRFTISRDNAKNTVYLQMSSLKPEDTAVYYCATTGYRLRQATRYDYWGQGTQVTVSS”, the entry is “high polyreactivity”; as for “QVQLVESGGGLVQAGGSLRLSCAASGSIVVVYDKGWYRQAPGKERELVAAISRRGGNTYYADSVKGRFTISRDNAKNTVYLQMNSLKPEDTAVYYCNAVRTRKAFDYWGQGTQVTVSS”, “low polyreactivity”.

With “QVQLVESGGGLVQAGGSLRLSCAASGRIFLGYTMGWYIQAPGKERELVAAISYTGGSTYYADSVKGRFTISRDNAKNSVYLQMNSLKPEDTAVYYCAAGTRFSYYWGQGTQLTVSS”, the “polyreactivity (PSR sort gate)” value is reported as “high polyreactivity”. Regarding “QVQLRESGCGLVQAGGNLRLSCAASGNIFDADIMGWYGQAPGKERELVASITEGGSTNYADSVRCRFTISRDNAKNTVYLQMISLKPEDTAVYYCTAIAYPDIPTYFDHDSDYFYWGQGTQVTVSS”, the “polyreactivity (PSR sort gate)” value is “high polyreactivity”.

In the case of “QVQLVESGGGLVQAGGSLSLSCADSGSTFPKYAMGWYRQAPGKERELVASISVTTGSTYYADTVKGRFTISRDNAKNTVYLHMNSLKPVDTAVYYCAKRTYSRKLRGAYNYWGQGTQVTVSS”, the “polyreactivity (PSR sort gate)” value is given as “high polyreactivity”. The same measure for “QVQLVESGGGLVQAGGSLRLSCASSGRIFKYYSMGCYRQSPGKVRELVASISWSGGSTYYADSVKGRFTISRDNAKNTVYLQMNSLKPEDTAVYYCAAYVTYLRYRSNIAYYGYDYWGQGTQVTVSS”: “high polyreactivity”. The same measure for “QVQLVESGGGLVQAGGSLRLSCAASGRTFYTNTMGWYRQAPGKERELVAAISYSGSSTYYADSVKGRFTISRDNAKNTVYLQMNCLKPEDTAVYYCNAVRYYRYYYWGQGTQVTVSS”: “low polyreactivity”. The same measure for “QVQLVESGGGLVQAGGSLRLSCAASGSIFRYYAMGWYRQAPGKERELVAAITGRGGSTYYADSVKGRFTISRDNAKNTVYLQMNSLKPEDTAVYYCADYIDANVHRFDYWGQGTQVTVSS”: “low polyreactivity”; for “QVQLVESGGGLVQAGGSLRLSCAASGSIFYGYTMGWYRQAPGKERELVAGITRSGTSTYYADSVKGRFTISRDNAKNTVYLQMNSLNPQDTAVYYCARVGLSKRYGSWGQGTEVTVSS”: “high polyreactivity”; for “QVQLVESGGGLVQAGGSLRLSCAASGRTFFPYAMGWYRQEPGKERELVADIRRGGSTYYADSVKGRFTISRDNAKNNVYLQMYSLKPEDTAVYYCNVDFWWNRLYELDYWGQGTQVTVSS”: “high polyreactivity”. As to “KVQLVESGGGLVQAGGRLRLSCAASGFIFVPYPMGWYRQAPGKERELVATITGRGDSTYYADSVKGRFTISRDNAMNTVYLQMNSLKTDDTAVYYCAVDPIRLWAYDYWGQGTQVNVSS”, the “polyreactivity (PSR sort gate)” value is given as “low polyreactivity”. The same measure for “QDQLVESGGGLVQAGGSLRLSCAASGSTFVGNAMGWYRQAPGKERELVAAISRTGGSTYYADSVKGRFTISRDNAKNTVYLQMNSLKPEDTAVYYCAARRYDIRYYYVTYRPPKMYYWGQGTQVTVSS”: “high polyreactivity”; for “QVQLVESGGGLVQAGGSLRLSCAASGSTFLSYAMGWYRQAPGKERELVARITSSGGNTYYADSVKGRFTISRDNAKNTVYLQMNSLKPEDTAVYYCAVSLEDQQYIFDYWGQGTQVTVSS”: “low polyreactivity”; for “QVQLVESGGGLVQAGGSLSLSCAASGGIFQVNSMGWYRQATGKEREVLAAISWSVGRTYYADSVKGRFTISRDNAKNTVYLQMNSLKPEDTAVYYCARYGKRGYYYWGQGTQVTVSS”: “low polyreactivity”. The same measure for “QVQLVESGGGLVQAGGSLRLSCAASGRIFGHYVMGWYRQAPGKERELVAAISYSGGSTYYADSVKGRFTISRDNAKITVYLQMISLKPEDTAVYYCAARETQDSPYGAYYYWGQGTQVTVSS”: “high polyreactivity”; for “QVQLVESGGGLVQAGGSLRLSCAASGRIFYSYAMGWYRQAPGKERELVATITNGGSTNYADSVKGRFTMSRDNAKNTVYLQMNSLKPEDTAVYYCAKRSFRYASALVRYPPGYYWGQGTQVTVSS”: “high polyreactivity”. “QVQLVESGGGLVQAGGSLRLSCAASGSIIVWNAMGWYRQAPGKERELVASITSGASTYYADSVKGRFTISRDNAKNTVYLQMNSLKPEDTAVYFCAAYYGYTDVWYLYSGYNYWGQGTQVTVSS”: the “polyreactivity (PSR sort gate)” value is recorded as “low polyreactivity”. Take “QVQLVESGGGLVQAGGSLRLSCAASGIIFLTHAMGWYRQAPGKERELVAAITAIGGSTYYADSVKGRFTLSRDNAMNTVYLLMISLKPEDTADYYCAADFSYVYYLYDFWGQGTKVTVSS”: the “polyreactivity (PSR sort gate)” value is reported as “low polyreactivity”. As for “QVQLVESGGGLVQAGGSLRISCVASARTFRWYAMGWYRQAPGKERELVATITLNGGSTYYADSVKGRFTISRDNAKNNVYLQMNSLKPEDTAVYYCNRGTNVVRRGVYSFGYDYWGQGTQVTVSS”, the entry is “low polyreactivity”; as for “QVQLVESGGGLVQAGGSLRLSCAASGTTFYPNAMGWYRQAPGKERELVAAISWSGGRTYYADSVKGRFTISRDNAKNTVYLQMNSLKPEDTAVYYCNRYHRTSWRAKYDYWGQGTQVTVSS”, “high polyreactivity”; as for “QVQHVESGRGLVQAGGSLRLSCAASGSTFDYNALGWSRQAPGKERELVARISSSGGITDYADSVKGRFTISRDNAKNTVYLHMNSLKPDDTAVNYCARVGKSGAVTAETRRWYYYWGQGTQVTVSS”, “low polyreactivity”.

In the case of “QVQLEESGGGLVQAGGSLRLTCAACGSIFGPNAMGWYRQAPGKERELVAAIDSSDGSTYYADSVKGRFTISRDNAKNSVYLQMNSLKPEDTAVYYCADELGYIYYSYWWQYDYWGQGTQVTVSS”, the “polyreactivity (PSR sort gate)” value was “high polyreactivity”. For the sequence “QVQLVESGGCLVQAGGSLRLSCAASGIIFQGYVMGWYRQAPGKEREFVAAISRSGGTTFYADSVKGRFTISRDNAKNTVYLQMNSLKPVDTAVYSCNRARLGRPGYDYWGQGTQVTVTS”, the “polyreactivity (PSR sort gate)” value is “high polyreactivity”. The same measure for “QVQLVESGGGLVQAGGSLRLSCAASGFIFSSYAMGWYIQAPGKERELVAAISRSGGRTYYADSVKGRFTISRDNAKNTVYLKMNSLKPEDTAVYYCAAKWLGTAGDDYWGQGTQVTVSS”: “high polyreactivity”. The same measure for “QVQLVDSGGGLVQAGGSLRLSCAASGSTFSRYAMGWYRQARGKERELVAAITDGGDSTYYADSVKGRFTISRDNAKNTVYLQMNSLKPEDTAGYYCNADRLQYGRTPHYDYWGQGTQVTVSS”: “low polyreactivity”.
